Experimental data: paper doi:10.1101/2022.07.11.499521

Biological target: Vairimorpha necatrix 20S proteasome core particle (Vairimorpha necatrix (endogenous in spores))
Assay: cryo-EM structure

percent of proteasome particles capped by RP: 12%
Substance: Vairimorpha necatrix 19S regulatory particle (complex)
